This note sets out measurements from paper PMC9104182.

The assay deals with photoconvertible fluorescent protein DendFP (Dendronephthya sp). Description: crystal structure; native DendFP crystals, hanging drop at 22 °C, 100 mM Tris-HCl pH 7.5, 0.2 M MgCl2, 20% PEG4000; eight molecules (two tetramers) in the asymmetric unit; interfaces analysed with PISA.

Substance “photoconvertible fluorescent protein DendFP (natural protein)” had a stoichiometry N of 4.

In general, stoichiometry N refers to a count of units in the complex or per binding partner.
